Reference: US20170173105A1, “AUTOASSEMBLING PEPTIDES FOR THE TREATMENT OF PULMONARY LEAKAGE” (3-D MATRIX, LTD., priority 2014, published 2017)

Tests used:
Format in all cases: physicochemical
[1] = pH and appearance of 2.5% peptide solutions after adding 0.1 N NaOH
Procedure: To adjust the pH level of the peptide solutions by way of example, 0.1 N NaOH was added to 2 mL of 2.5% peptide solutions and their pH and appearance were measured.

[2] = Rheological properties of pH adjusted peptide solutions and hydrogels (stress/frequency sweep)
Procedure: Based on the visual observation of the effect of pH level on the properties of the peptide solutions, the effect on the rheological properties of the peptide solutions after adjusting their pH level to 3.4 (PuraMatrix® and KLD12) or 3.7 (IEIK13) was evaluated. If the pH levels of peptide solutions are higher than 3.5 (PuraMatrix® and KLD12) or 3.7 (IEIK13), the peptide solution began phase separation becoming cloudy. The rheological properties of PuraMatrix®, KLD12 and IEIK13 solutions were higher at pH 3.4. The results are shown in FIG. 2 for KLD12 1%, FIG. 3 for IEIK13 1%, and FIGS. 4-5 for PuraMatrix® 1% and 2.5%, respectively. Stress sweep tests were performed at 10 rad/s. Frequency sweep tests were performed at 1 Pa.
Based on the results of the effect on the rheological properties of the peptide solutions after adjusting their pH level to 3.4 (PuraMatrix® and KLD12) or 3.7 (IEIK13), the effect on the rheological properties of the peptide solutions at various pH levels was evaluated. […] The rheological properties of peptides were evaluated at various concentrations using a rheometer (DHR-1, TA Instruments) with 20 mm plates. The results are shown in FIG. 6A for PuraMatrix® 2.5% solution and FIG. 6B for IEIK13 1.5% solution, respectively. Frequency sweep tests were performed from 1 rad/sec to 10 rad/sec at 1 Pa and the storage modulus at 1 rad/sec was selected for data.
Based on the results of the effect on the rheological properties of the peptide solutions after adjusting their pH level, the effect on the rheological properties of the peptide hydrogels at various pH after DMEM treatment was evaluated and compared to the effect on the rheological properties of the peptide solutions at various pH before DMEM treatment. […] The results are shown in FIGS. 7A-7B for PuraMatrix® and FIGS. 8A-8B for IEIK (SEQ ID NO: 5), respectively. Frequency sweep tests were performed from 1 rad/sec to 10 rad/sec at 1 Pa and the storage modulus at 1 rad/sec was selected for data.

[3] = Appearance of 1.5% peptide solutions with various salts at room temperature; conditions: for Appearance: IEIK13 solution, room temperature
Procedure: The effect of salt ionic strength level on the properties of peptide solutions was evaluated to identify optimized salt ionic strength levels for the peptides as described herein. Increasing the salt ionic strength level of PuraMatrix® and other peptides may generally improve its function and mechanical strength for various clinical applications. To adjust the salt ionic strength of the peptide solutions by way of example, various salt buffer solutions including NaCl, KCl, MgCl2, CaCl2 and DPBS (10×) were added to 2 mL of 1.5% peptide solutions.

[4] = 0.1 N NaOH 0 μL/mL added in 2.5% solution, conc. 2.5%
[5] = 0.1 N NaOH 50 μL/mL added in 2.5% solution, conc. 2.38%
[6] = 0.1 N NaOH 100 μL/mL added in 2.5% solution, conc. 2.27%
[7] = 0.1 N NaOH 350 μL/mL added in 2.5% solution, conc. 1.85%
[8] = pH increase up to approximately 3.5 or less with 0.1 N NaOH, 2.5% solutions

Substance: Ile-Glu-Ile-Lys-Ile-Glu-Ile-Lys-Ile-Glu-Ile-Lys-Ile [IEIK13]
- Appearance [1, 4]: Clear, thick gel
- Peptide solution pH [1, 4]: 1.8
- Appearance [1, 5]: Clear, thick gel
- Peptide solution pH [1, 5]: 2.1
- Appearance [1, 6]: Clear, thick gel
- Peptide solution pH [1, 6]: 2.2
- Peptide solution pH ([1]; 0.1 N NaOH 150 μL/mL added in 2.5% solution, conc. 2.17%): 2.7
- Peptide solution pH ([1]; 0.1 N NaOH 200 μL/mL added in 2.5% solution, conc. 2.08%): 3.0
- Peptide solution pH ([1]; 0.1 N NaOH 250 μL/mL added in 2.5% solution, conc. 2.0%): 3.3
- Peptide solution pH ([1]; 0.1 N NaOH 275 μL/mL added in 2.5% solution, conc. 1.96%): 3.7
- Peptide solution pH ([1]; 0.1 N NaOH 300 μL/mL added in 2.5% solution, conc. 1.92%): 4.0
- Appearance [1, 7]: Cloudy, brittle gel
- Peptide solution pH [1, 7]: 4.5
- Peptide solution pH ([1]; 0.1 N NaOH 400 μL/mL added in 2.5% solution, conc. 1.79%): 5.4
- Peptide solution pH ([1]; last line per peptide, NaOH volume and conc. not given): 7.0
- apparent stiffness on pH increase [1, 8]: increased
- color of solution on pH increase [1, 8]: did not change the clear color
- pH level at which the peptide solution began phase separation becoming cloudy [2]: > 3.7
- rheological property of solutions at various pH levels ([2]; PuraMatrix 2.5% solution, IEIK13 1.5% solution, storage modulus at 1 rad/sec): increases with pH adjustment up to 3.4
- rheological property of hydrogels after DMEM treatment at various pH ([2]; after DMEM treatment, storage modulus at 1 rad/sec): increases with pH adjustment up to 3.4
- rheological properties of solutions after pH adjustment ([2]; at pH 3.4 (IEIK13 adjusted to 3.7), KLD12 1%, IEIK13 1%, PuraMatrix 1% and 2.5%): higher
- Appearance ([3]; CaCl2 0 M, ionic strength 0 M, conc. 1.5%): Clear, thick gel
- Appearance ([3]; CaCl2 0.005 M, ionic strength 0.015 M, conc. 1.46%): Clear, thick, stiffer gel
- Appearance ([3]; CaCl2 0.0067 M, ionic strength 0.02 M, conc. 1.45%): Clear, thick, stiffer gel
- Appearance ([3]; CaCl2 0.0083 M, ionic strength 0.025 M, conc. 1.44%): Clear, thick, stiffer gel
- Appearance ([3]; CaCl2 0.01 M, ionic strength 0.03 M, conc. 1.43%): Clear, thick, stiffer gel
- Appearance ([3]; CaCl2 0.0117 M, ionic strength 0.035 M, conc. 1.41%): Clear, thick, stiffer gel
- Appearance ([3]; CaCl2 0.0133 M, ionic strength 0.04 M, conc. 1.40%): Slightly cloudy, thick, stiffer gel
- Appearance ([3]; CaCl2 0.015 M, ionic strength 0.045 M, conc. 1.39%): Slightly cloudy, thick, stiffer gel
- Appearance ([3]; CaCl2 0.0167 M, ionic strength 0.05 M, conc. 1.37%): Slightly cloudy, brittle gel
- Appearance ([3]; CaCl2 0.0183 M, ionic strength 0.055 M, conc. 1.36%): Cloudy, phase-separated
- Appearance ([3]; KCl 0 M, ionic strength 0 M, conc. 1.5%): Clear, thick gel
- Appearance ([3]; KCl 0.005 M, ionic strength 0.005 M, conc. 1.46%): Clear, thick, stiffer gel
- Appearance ([3]; KCl 0.01 M, ionic strength 0.01 M, conc. 1.43%): Clear, thick, stiffer gel
- Appearance ([3]; KCl 0.015 M, ionic strength 0.015 M, conc. 1.39%): Clear, thick, stiffer gel
- Appearance ([3]; KCl 0.02 M, ionic strength 0.02 M, conc. 1.35%): Clear, thick, stiffer gel
- Appearance ([3]; KCl 0.025 M, ionic strength 0.025 M, conc. 1.31%): Clear, thick, stiffer gel
- Appearance ([3]; KCl 0.03 M, ionic strength 0.03 M, conc. 1.27%): Clear, thick, stiffer gel
- Appearance ([3]; KCl 0.035 M, ionic strength 0.035 M, conc. 1.24%): Slightly cloudy, brittle gel
- Appearance ([3]; KCl 0.04 M, ionic strength 0.04 M, conc. 1.2%): Slightly cloudy, brittle
- Appearance ([3]; KCl 0.045 M, ionic strength 0.045 M, conc. 1.16%): Cloudy, phase-separated
- Appearance ([3]; MgCl2 0 M, ionic strength 0 M, conc. 1.5%): Clear, thick gel
- Appearance ([3]; MgCl2 0.005 M, ionic strength 0.015 M, conc. 1.46%): Clear, thick, stiffer gel
- Appearance ([3]; MgCl2 0.0067 M, ionic strength 0.02 M, conc. 1.45%): Clear, thick, stiffer gel
- Appearance ([3]; MgCl2 0.0083 M, ionic strength 0.025 M, conc. 1.44%): Clear, thick, stiffer gel
- Appearance ([3]; MgCl2 0.01 M, ionic strength 0.03 M, conc. 1.43%): Clear, thick, stiffer gel
- Appearance ([3]; MgCl2 0.0117 M, ionic strength 0.035 M, conc. 1.41%): Clear, thick, stiffer gel
- Appearance ([3]; MgCl2 0.0133 M, ionic strength 0.04 M, conc. 1.40%): Slightly cloudy, thick, stiffer gel
- Appearance ([3]; MgCl2 0.015 M, ionic strength 0.045 M, conc. 1.39%): Slightly cloudy, stiffer gel
- Appearance ([3]; MgCl2 0.0167 M, ionic strength 0.05 M, conc. 1.37%): Slightly cloudy, brittle gel
- Appearance ([3]; MgCl2 0.0183 M, ionic strength 0.055 M, conc. 1.36%): Cloudy, phase-separated
- Appearance ([3]; NaCl 0 M, ionic strength 0 M, conc. 1.5%): Clear, thick gel
- Appearance ([3]; NaCl 0.005 M, ionic strength 0.005 M, conc. 1.46%): Clear, thick, stiffer gel
- Appearance ([3]; NaCl 0.01 M, ionic strength 0.01 M, conc. 1.43%): Clear, thick, stiffer gel
- Appearance ([3]; NaCl 0.015 M, ionic strength 0.015 M, conc. 1.39%): Clear, thick, stiffer gel
- Appearance ([3]; NaCl 0.02 M, ionic strength 0.02 M, conc. 1.35%): Clear, thick, stiffer gel
- Appearance ([3]; NaCl 0.025 M, ionic strength 0.025 M, conc. 1.31%): Clear, thick, stiffer gel
- Appearance ([3]; NaCl 0.03 M, ionic strength 0.03 M, conc. 1.27%): Slightly cloudy, thick, stiffer gel
- Appearance ([3]; NaCl 0.035 M, ionic strength 0.035 M, conc. 1.24%): Slightly cloudy, brittle gel
- Appearance ([3]; NaCl 0.04 M, ionic strength 0.04 M, conc. 1.2%): Cloudy, phase-separated
- apparent stiffness on salt ionic strength increase ([3]; up to the ionic strength at which solutions stay clear): increased
